Consider 1 substance from patent US9206246B2, “Heparin/heparan sulfate-dependent inhibitors of activated protein C and uses thereof in treating hemophilic disorders” (Academia Sinica, priority 2012, dated 2015).

Common to all, as to type: biochemical
Test [1] concerns APC in FIX-deficient plasma. The test is described as follows: APTT-based APC resistance assay in FIX-deficient plasma. The settings on record: 50-200 nM DrKIn-I, 40 nM APC, 2 μg/ml heparan sulfate. The protocol: APTT-based clotting times were measured in normal, FVIII-deficient and FIX-deficient plasma containing 2 μg/ml heparan sulfate in the presence or absence of 40 nM APC and the indicated concentrations of DrKIn-I. Results shown are means±S.D. of at least three experiments.
50 μl of normal plasma, FVIII-deficient plasma or FIX-deficient plasma supplemented with 2 μg/ml heparan sulfate (four disaccharide units long) was exposed to APC (40 nM) and varying concentrations of DrKIn-I (50-200 nM). 50 μl of activated partial thromboplastin (APTT) reagent (HYPHEN Biomed) was added and incubated for 1 minute at 37° C. Finally, clotting was initiated by adding 50 μl of 20 mM CaCl2. Coagulation times, which reflect the activities of APC, were recorded on a coagulometer (Hemostasis Analyzer KC-1; Sigma Diagnostics).

Test [2] deals with T1, human activated protein C (Homo sapiens, UniProt P04070).
T1 construct: purchased Haematologic Technologies
Kind of test: Inhibition of APC amidolytic activity (Spectrozyme PCa chromogenic substrate). The following applies: for enhancement of APC inhibition by heparan sulfate chain: 10 μg/ml, APC and DrKIn-I 20 nM each; for Hill slope of dose-response curve / IC50: APC 10 nM. The method, then:
B: Dose-response curves of APC (10 nM) inhibition by DrKIn-I in the absence (◯) and presence (●) of 0.1 U/ml heparin. C: To determine the minimum concentration of heparin required for the potentiation APC inhibition, the activity of APC (20 nM) was measured after the addition of DrKIn-I (20 nM) and varying concentrations of heparin (0-1000 mU/ml). D: To assess the ability of heparan sulfate and the minimum length of heparan sulfate required to potentiate DrKIn-I-mediated APC inhibition, the amidolytic activity of APC was determined in the presence of DrKIn-I (20 nM) and different lengths of heparan sulfate chains (10 μg/ml each). E, Time course of FVa inactivation by APC (1 nM) was assessed in the absence (●) or presence (▪) of 5 nM DrKIn-I, or in the presence of 5 nM DrKIn-I supplemented with 0.1 U/ml heparin (▴), as described in “Materials and methods”. F, The effect of DrKIn-I (0-250 nM) and/or heparin (0.1 U/ml) on APC-mediated FVa inactivation was determined after 10 minutes of incubation at 37° C. with APC (5 nM). Results shown are means±SD of three experiments.
All inhibition assays were performed in 96-wells microtiter plates in 25 mM Tris-HCl (pH 7.4), 150 mM NaCl, 2.5 mM CaCl2 and 5 mg/ml BSA. For comparison between DrKIn-I and DrKIn-II, the amidolytic activity of 10 nM APC, with or without 0.1 U/ml heparin, was assayed in the presence or absence of equal molar concentrations of DrKIn-I or DrKIn-II. Immediately after the addition of APC, Spectrozyme PCa was added and the rates of p-nitroaniline release were monitored at 405 nm for 10 minutes at 37° C. For dose response curves, APC was mixed with different concentrations of DrKIn-I in the presence or absence of heparin. The final concentrations were as follows: APC (10 nM), heparin (0.1 U/ml) and DrKIn-I (0-100 nM in the presence of heparin and 0-12800 nM in the absence of heparin). Dose-response curves were fitted using GraphPad Prism (GraphPad Software). In other inhibition experiments, varying concentrations of heparin ([…]) or different lengths of heparan sulfate chains (10 μg/ml) were added to equimolar concentrations of APC and DrKIn-I (20 nM each). In all the inhibition experiments, Spectrozyme PCa was added to a final concentration of 0.2 mM. Changes in absorbance were measured using SpectraMax M2^e Microplate Reader (Molecular Devices).

A further test relates to FIX-deficient plasma. Kind of test: Thrombin generation assay in FIX-deficient plasma. The settings on record: 100 nM TM, 2 μg/ml heparan sulfate. The protocol: (A) Representative thrombin generation curves in FVIII-deficient and FIX-deficient plasma performed in the presence of heparan sulfate (2 μg/ml), TM (100 nM) and varying concentrations of DrKIn-I (●, 0 nM; ▪, 20 nM; ▴, 40 nM; ▾, 80 nM; ◯, 200 nM). Dashed lines represent thrombin generation in the absence of TM and DrKIn-I. (B-C) Activity in FVIII-deficient (B) and FIX-deficient (C) plasma. Left panels show ETP; right panels, peak thrombin. For comparison, dashed lines represent the activity of normal plasma containing TM and heparan sulfate in the absence of the inhibitor. Results are represented as means±SEM of at least three independent experiments.
Briefly, 80 μl of either normal plasma, protein C-deficient plasma, FVIII-deficient plasma or FIX deficient plasma containing 2 μM corn trypsin inhibitor, 2 μg/ml heparan sulfate (four disaccharide units long), 30 μM DOPC/DOPS/DOPE (60:20:20) and 100 nM recombinant TM was incubated with 20 μl of 500-fold diluted TF solution (Innovin; Dade Behring) in the absence or presence of the indicated concentrations of DrKIn-I. Following incubation for 3 minutes at 37° C., thrombin generation was initiated by the dispensation of 20 μl of 2.5 mM fluorogenic substrate (Z-Gly-Gly-Arg-AMC.HCl) dissolved in 0.15 M NaCl, 60 mg/ml BSA and 100 mM CaCl2. […] Results were evaluated using the Technothrombin TGA software (Technoclone).

[3] abbreviates: in the presence of 0.1 U/ml heparin.

T1 sequence (P04070 212-450 limits assumed): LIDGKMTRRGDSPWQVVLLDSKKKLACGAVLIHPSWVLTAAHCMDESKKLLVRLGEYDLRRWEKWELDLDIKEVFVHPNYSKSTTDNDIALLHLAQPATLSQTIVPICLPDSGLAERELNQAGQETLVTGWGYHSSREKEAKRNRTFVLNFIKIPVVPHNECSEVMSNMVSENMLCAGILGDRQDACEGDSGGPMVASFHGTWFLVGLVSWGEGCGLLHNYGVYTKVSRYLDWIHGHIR
T1 sequence (P04070 43-197 limits assumed): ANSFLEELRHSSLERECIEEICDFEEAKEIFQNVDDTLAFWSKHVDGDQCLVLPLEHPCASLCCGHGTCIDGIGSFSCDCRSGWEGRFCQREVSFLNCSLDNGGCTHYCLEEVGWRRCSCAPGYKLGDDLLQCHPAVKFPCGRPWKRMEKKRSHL

As a reminder, the IC50 is the concentration needed to halve the response being measured. For the substance DrKIn-I (CGGNDNNFETRKKCRQTCGAPRKGRPT), the clotting time result in test [1] is listed as “dose-dependently decreased the clotting time”. Besides, in test [2] (10 nM inhibitor, 10 nM APC, no heparin), the “inhibitory activity against APC in the absence of heparin” value is given as “little inhibitory activity against APC”. Also, the “potentiation of APC inhibition by heparin” value in test [2] (0.01 U/ml heparin, APC 20 nM, DrKIn-I 20 nM) is “more than 70%”. The APC activity result in test [2] (0.1 U/ml heparin, APC 20 nM, DrKIn-I 20 nM) is given as “no APC activity was detectable”. Besides, the “decrease of APC activity (inhibition of APC amidolytic activity)” value in test [2] (equimolar inhibitor and APC (10 nM each), 0.1 U/ml heparin, Spectrozyme PCa 0.2 mM) was 100%. In addition, the “enhancement of APC inhibition by heparan sulfate chain” value in test [2] (heparan sulfate of 2 disaccharide units) was about 25%. In addition, in test [2] (heparan sulfate of one disaccharide unit), the “enhancement of APC inhibition by heparan sulfate chain” value was about 10%. In addition, in test [2] (in the absence of heparin), the “Hill slope of dose-response curve” value is reported as −0.85±0.02 and the IC50 was 88.9 ± 1 nM. In test [2] (setting [3]), the “Hill slope of dose-response curve” value is reported as −3.64±0.30 and the IC50 worked out at 3.5 ± 0.2 nM. Also, the “reduction of IC50 by heparin” value in test [2] (with vs without heparin) stood at 25 fold. In the test on FIX-deficient plasma, the “DrKIn-I concentration correcting ETP to normal levels” value is 160 nM and the “peak thrombin level relative to normal plasma (partial correction)” value is given as “approximately 85%”.
